{"source": "the DeepSol protein solubility set", "experiment": "soluble on expression in E. coli; label from the status in PepcDB or PDB records"}
{"sequence": "MNIVITGGTGLIGRHLIPRLLELGHQITVVTRNPQKASSVLGPRVTLWQGLADQSNLNGVDAVINLAGEPIADKRWTHEQKERLCQSRWNITQKLVDLINASDTPPSVLISGSATGYYGDLGEVVVTEEEPPHNEFTHKLCARWEEIACRAQSDKTRVCLLRTGVVLAPDGGILGKMLPPFRLGLGGPIGSGRQYLAWIHIDDMVNGILWLLDNELRGPFNMVSPYPVRNEQFAHALGHALHRPAILRVPATAIRLLMGESSVLVLGGQRALPKRLEEAGFAFRWYDLEEALADVVR", "values": [{"measurement": "soluble on expression in E. coli", "value": "soluble"}]}
{"sequence": "MAKLTRLGDLERAVMDHLWSRTEPQTVRQVHEALSARRDLAYTTVMTVLQRLAKKNLVLQIRDDRAHRYAPVHGRDELVAGLMVDALAQAEDSGSRQAALVHFVERVGADEADALRRALAELEAGHGNRPPAGAATET", "values": [{"measurement": "soluble on expression in E. coli", "value": "soluble"}]}
{"sequence": "MHHHHHHMMSETAEKAIEIWKIRRLVKQLINCHGNGTSMITLIIPPGEQISRYSNMLAEEYGTASNIKSRVNRLSVLSAITSTRERLKLYNKVPDNGLVIYCGEVIMEGNKTRKLNIDFEPFKPINTSQYLCDNKFHTEALAELLESDQRFGFIVMDGHQTLYGVVSGSAREVLQRFTVDLPKKHGRGGQSALRFARLRDEKRHNYVRKVAEGAVQHFITDDKPNVAGIVLAGSADFKTELGQSDLFDQRLQSRIIKTVDVSYGGDAGFNQAIELAADTLSNVKYVQEKKLIQRFFDEISLDSGKYCFGVVDTMNALQEGAVETLLCFADLDMIRYEFKNSEGNPVITYMTKEQEEKDSTNSFLLDKDTGAEMELVSSMLLSEWLAEHYKDYGANLEFVSDRSQEGMQFVKGFGGIGAVMRYQLDLSMLDPESDEFYSDSD", "values": [{"measurement": "soluble on expression in E. coli", "value": "soluble"}]}
{"sequence": "MSSASGLRRGHPAGGEENMTETDAFYKREMFDPAEKYKMDHRRRGIALIFNHERFFWHLTLPERRGTCADRDNLTRRFSDLGFEVKCFNDLKAEELLLKIHEVSTVSHADADCFVCVFLSHGEGNHIYAYDAKIEIQTLTGLFKGDKCHSLVGKPKIFIIQACRGNQHDVPVIPLDVVDNQTEKLDTNITEVDAASVYTLPAGADFLMCYSVAEGYYSHRETVNGSWYIQDLCEMLGKYGSSLEFTELLTLVNRKVSQRRVDFCKDPSAIGKKQVPCFASMLTKKLHFFPKSN", "values": [{"measurement": "soluble on expression in E. coli", "value": "soluble"}]}
{"sequence": "MGSDKIHHHHHHSDIASSVNGGSNRLADGGDFELGMSVYGINQIDVRQTGSGTAQLSLLVSGMYQYKGMFVEMIHQSQDGVNLGVNLWSSEDWSFDLLLANLQGSWSRPDLDPSTLDEAGRNAYLLSEDSLYIGAGFRATRYWGDNYVFQYRLVSDYYDDQGIQSSARLGKSWQVRNWNFHVLGSVGYSSATLNRYLFGVSKEEATELFPEYHPSSSFSYGMELGVAYPLSESFVFRAMYRFNVLSKEVTDSPFNQAGYASFFNASISYVF", "values": [{"measurement": "soluble on expression in E. coli", "value": "not soluble"}]}
{"sequence": "GPGSMSAEAVADLERRAAAAETAIGELSLRLQTMGSSVGAGIEPRLRELLKLMHEDRAEFEAVRAQRDELKEENERLKIQVAKHEYRIKHLLRTIEEISPEENS", "values": [{"measurement": "soluble on expression in E. coli", "value": "soluble"}]}
{"sequence": "MVAAAVVGTAAVGTKAATDPRSVGTQVDDGTLEVRVNSALSKDEQIKKEARINVTAYQGKVLLVGQSPNAELSARAKQIAMGVDGANEVYNEIRQGQPIGLGEASNDTWITTKVRSQLLTSDLVKSSNVKVTTENGEVFLMGLVTEREAKAAADIASRVSGVKRVTTAFTFIKLEHHHHHH", "values": [{"measurement": "soluble on expression in E. coli", "value": "not soluble"}]}
{"sequence": "MGSSHHHHHHGKTIFVIVPTNEEQVAFLEALAKQDELNFDWQNPPTEPGQPVVILIPSDMVEWFLEMLKAKGIPFTVYVEEGGSENLYFQGGGGGGWPTEDPNELLKSQVWQKYHNQLNERKEYADKLLQDSNYIHRKNNPGE", "values": [{"measurement": "soluble on expression in E. coli", "value": "soluble"}]}
{"sequence": "MSDLHIPGTQSTPAIQGDWQAGRLSMQGDSYPENSYELFGQVIDWVERFLADGQRPLELDLRLLYLNTSSIKAMMDILDLLEEAHQGGRPVSLRWHYDRRNERVAELAEEFREDCSFPFAIQAHDE", "values": [{"measurement": "soluble on expression in E. coli", "value": "not soluble"}]}
{"sequence": "MLNEKQAKHIATAIENGNYRSKRQAIVDTTNFWSVSVPIFYQFDTKLSATNIANVRKAIQFWNDNSCLSFKEDNNAKNRLFLSSAGGCWSYVGKQVDMPYQMVSVGPNCDTFGTATHELMHAIGFWHQQSRADRDNYVYVDFSNIIPSQAYNFQKMAVDQAQLLNLPYDYGSVMQYYPYAFAVDSSKYTILAKENGFQNSMGQREAPAFSDIIGVNKLYNCTSQCKIQMKCSNCGITDSRNCNQCKCPRYFTGASCDSLPSGTAPNCNGAVLQATSSWETFDAKAGDPSSFSSSTDNSTNCYWHIKAPEGQQIEFKMTKTPLAAICMQECPWQSIEVNLGKFDLFGMITCCDTILNQVFTSELNMIALRGIIRYNQLTFSIQYRAVPSSKPASTNACLNQ", "values": [{"measurement": "soluble on expression in E. coli", "value": "not soluble"}]}
{"sequence": "LEDFNVTSKVIELDVRKPTPEAAENLNIGMDEDIYYVKRVRYINGQTLCYEESYYTKSIVTYLNNEIVSHSIFHYIREGLGLKIGFSDLFLHVGQLNEEEAEYLGLEAGLPKLYIESIFHLTNGQPFDYSKISYNYEQSQ", "values": [{"measurement": "soluble on expression in E. coli", "value": "not soluble"}]}
{"sequence": "IDKAIRDGNVLGFRTEYYKTLSEKDDIDDETSSTGIDKKEALENPIRISEIVDFILKNYNRLTKRNEEFFEHNKIANINEVITSRNKLSENKVLTTLNGFNSILACSSINAAKIYYSEFKKQQQKFPQEEKLKIGLIYSYLPSEQ", "values": [{"measurement": "soluble on expression in E. coli", "value": "not soluble"}]}
{"sequence": "NKDNLDLAGLTSLLSEKIKEFLQEKKMQSFYQQELETVESLQSLASRPVTHSTGSDQVELKDSGTSGVAQRVFKNALQLLQEKGLVFQRDSGSDKLYYVTTKDKDLQ", "values": [{"measurement": "soluble on expression in E. coli", "value": "soluble"}]}
{"sequence": "MKHHHHHHHHGGLVPRGSHGMTKKIVAIWAQDEEGVIGKDNRLPWYLPAELQHFKETTLNHAILMGRVTFDGMGRRLLPKRETLILTRNPEEKIDGVATFHDVQSVLDWYSAQEKNLYIVGGKQIFQAFEPYLDEVIVTHIHARVEGDTYFPAEFDLSLFETVSSKFYTKDEKNPYDFTIQYRKRKEVLE", "values": [{"measurement": "soluble on expression in E. coli", "value": "soluble"}]}
{"sequence": "MSLKITKIETTLFEYKLDRSMGDANSPMGRKKGSGCVLELITDEGISGISIGGQNALPQINSIFDGILLNNDPKAIFSIWKRMVEKYFKGGHDGIANDAISAIDVALWDLKAKINEEPLWKTLGGNNNKVNVYASDIALPINDDDLFNWYSKMSDKFGFKGGKLKVGLDQESDLKRLELMHNALSKNCDDPILYVDSNEYWSPKQTIRNVSEMEERFTLGWIEEPARRWDFLGLKKVSDSLQTPVCAGENLDTLGDFLPYFHHRSADVIQVSHGMTGISGALQIADAAYALELPVTLGGSSGIIHAHIANAIPNCITVEVPHPEPETKVFTSDVTIKDGYAFVGNKPGMGIEVNYEELAKHKVEKVSQKAGPSPYGRRPGAGLYEIPPTKEEISEGQSKEGHHHHHH", "values": [{"measurement": "soluble on expression in E. coli", "value": "soluble"}]}
{"sequence": "MSLKQYKAYLIDLDGTMYMGTDEIDGAKQFIDYLNVKGIPHLYVTNNSTKTPEQVTEKLREMHIDAKPEEVVTSALATADYISEQSPGASVYMLGGSGLNTALTEAGLVIKNDEHVDYVVIGLDEQVTYEKLAIATLGVRNGATFISTNPDVSIPKERGLLPGNGAITSVVSVSTGVSPQFIGKPEPIIMVKALEILGLDKSEVAMVGDLYDTDIMSGINVGMDTIHVQTGVSTLEDVQNKNVPPTYSFKDLNEAIAELEKEGHHHHHH", "values": [{"measurement": "soluble on expression in E. coli", "value": "soluble"}]}
{"sequence": "MPPKQQGPSKKSEQKRKEKVIEDKTFGLKNKKGNKNQKFVAQVENQVRNNNTRMDLVRQQEAAKKKEKDELLDIANLLKPVEQKVAKDVDPKSLLCVFFKQGLCGKGAKCKFSHDLAVAQKTAKKNLYADSREVEKDEETNENWDSDKLNEVVNKKNKNKHMIDIVSSFMTDIFKFKKLNFKVCKYFLEAVENNKYGWFWECPNGGEKCQYRHCLPEGYVLKKERKAMEQQKEDEISIEELVEKERAALSSKNLTKLTLQTFIAWKKKKLRERKEKEEADLKEKKEKIKSGKHNGMSGRDLFLYDANLVNNDDDEAGDIEMEKEEVDENEKVFEIDANFFKFDGMDDELTDQMSKSSTAVESTAKGMAKMDINEDLFDIDEDVENLDSDED", "values": [{"measurement": "soluble on expression in E. coli", "value": "soluble"}]}
{"sequence": "MNKDIETQRFKQQKKWQKYYKFRGQFFLMKKYSKRMIFDRRIKMTTKEKIEFIKQVTPHSDSEVEKIIKGMSDTSINRWYEIEKYRIDQELEEAVLTIYC", "values": [{"measurement": "soluble on expression in E. coli", "value": "not soluble"}]}
{"sequence": "MSLNTQLAIIRSKGKEHICYREEECFVDVSYPMVTFTKGEDDFEIVKCDHPSMEETFLYQESRLSIVIEMYHNGWPALSLKDPVTHEIYTVLTVNLEDKAAFSLPDRAFVDINNNPDAMEFLLSNKLAEDTGYRRQSGWVSYPMVTLNLPTFYRLDPHAFSAILNIREGHHHHHH", "values": [{"measurement": "soluble on expression in E. coli", "value": "soluble"}]}
{"sequence": "MSEPMSERERWQLELDKLQRGLQGDPFAFLGPQRDPGGEGGVLRAYLPGAQRVELLDEDGATLAELEQSDPGSGLFQRHLERLPPRYRLRVHWPDGVQESEDPYAFGPLLGELDLYLFAEGNHRQLASCLGAQLTRHEGVEGVRFAVWAPNAVRVSVVGDFNGWDGRRHPMRRRYPSGVWELFVPRLGEGELYKYELQGHDGLLPLKADPLALACETPPGTASKTCAALRHEWRDQDWLARRAERQGYAAP", "values": [{"measurement": "soluble on expression in E. coli", "value": "not soluble"}]}
{"sequence": "MSLEMNRYLSFTLFTGLSLLTTIPIEAYTLNPNKTATSILQTNVIEVRSITSVQPIVIYCPVGTVPQLPYQVWVTYSDGQGEYRQTKWSNSALSTEQSEADDKVYPIGSQYTINGFIIGDDTTENGYPITAKIEVVDTKNTISPKLIAHTIPLNNVKINGNNRLTSNRDLAIKEIISWDVSQQLYNYRDTYGLSTEGYTRSDGWDSPETKLKGHGSGHYMSALALAYAAATNPSHKEILRRNITRMVNELRECQERTFVWSEELGRYLEARDFAPEEELKKMKGTWEAFDEHKTKWATYGYGYLNAIPPHHPALIEMYRAYNNSDWVWAPYYSIHKQLAGLIDIATYMDDKSIADKALLIAKDMGLWVWNRMHYRTYVKKDGTQEERRTHPGNRYEMWNMYIAGEVGGMGESLARLSEMVSAPEEKARLIEASNCFDSPAFYEPLSKNIDDIRNRHANQHIPMIIGALRSYLSNNDTFYYHVSHNFWNLIQGRYRYSTGGVGNGEMFRQPYTQIVSMAMNGVSEGESHSNPHINETCCAYNLLKLTKDLNCLNPDDARYMDYYERTLYNQIIGSLHPEHHQTTYQYAVGLNASKPWGNETPQSTCCGGTGSENHVKYQEATYFVSDNTLWVALYMPTTLHWEEKNITLQQECLWPAKSSTIKVTAGEARFAMKLRVPYWATDGFDVKLNGISIATHYQPCSYAVIPTRQWKENDIVEITMPFTKHIDYGPDKLPAEIASKDGHQLETAWVGTLMHGPFAMTATDITNWTEATLNIDSRLASITVVEPNGPQTGTTGNLYTLMQGGRTFQPDYYRHDHTTHYFRINHIKDPTEGHHHHHH", "values": [{"measurement": "soluble on expression in E. coli", "value": "soluble"}]}
{"sequence": "SALTAALSVCPLPSSSFFFAGFLPHKKGRKSRLEFLASIDSTIVLYESPHRIGRLMEEVKEHFPDAQVFAAREITKMHEEYVTGTPDELANHFTGQKQRGEFVVVVHPPDKH", "values": [{"measurement": "soluble on expression in E. coli", "value": "not soluble"}]}
{"sequence": "MSLTQAQGAQQYVNINPPMPSDTPGKIEVLEFFAYTCPHCAAIEPMVEDWAKTAPQDVVLKQVPIAFNAGMKPLQQLYYTLQALERPDLHPKVFTAIHTERKRLFDKKAMGEWAASQGVDRAKFDSVFDSFSVQTQVQRASQLAEAAHIDGTPAFAVGGRYMTSPVLAGNDYAGALKVVDQLIVQSREGHHHHHH", "values": [{"measurement": "soluble on expression in E. coli", "value": "soluble"}]}
{"sequence": "GKRKLATISTKGKVKDLTDTLVGSSIGRPYISGGFTASSEGYMAFTQGSSSRPADVAVINTRKKLVKLTQLNEDLLAHKNLGKVTEINYKSSFDDEPIQGWYVTPPNFDPKKKYPLILEIHGGPHLAYGPHFSAELQRFAAQGYVVFYDNHRGSSSYGERFAMLLKYKYSSKEDFADHNSGVDAMLGLGFIDEGNLFIAGGSAGGIATAYAIGLTDRFSAAVVVKPVINWLSKVLTADSGLGQIPTQFPGMPWEHVEHYWKRSPMSLVGNVTTPTMLMTGEEDLRTPMAQTEQFYQALKLRKIDTVLVKVPGSPHGIAGKPSRMITKIEHTLAWFEKYKT", "values": [{"measurement": "soluble on expression in E. coli", "value": "not soluble"}]}
